Experimental data taken from article PMC9482650, “Quantitative fragmentomics allow affinity mapping of interactomes” (Nature Communications, 2022).

T1: MPDZ_10, O75970
T1 sequence (O75970 1624-1722, limits assumed, looked up): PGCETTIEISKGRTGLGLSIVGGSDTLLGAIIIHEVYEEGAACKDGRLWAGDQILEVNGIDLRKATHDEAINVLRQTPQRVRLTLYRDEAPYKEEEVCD

T2: NHERF3_1, Q5T2W1
T2 sequence (Q5T2W1 4-100, limits assumed, looked up): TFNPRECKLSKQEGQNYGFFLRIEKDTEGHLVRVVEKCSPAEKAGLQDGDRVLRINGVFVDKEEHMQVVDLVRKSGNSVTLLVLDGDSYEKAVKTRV

T3: PDZRN3_1, Q9UPQ7
T3 sequence (Q9UPQ7 244-349, limits assumed, looked up): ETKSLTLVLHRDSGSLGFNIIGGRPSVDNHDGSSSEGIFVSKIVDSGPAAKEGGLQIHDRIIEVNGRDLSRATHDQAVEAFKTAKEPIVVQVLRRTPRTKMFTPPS

T4: SNTG2, Q9NY99
T4 sequence (Q9NY99 68-166, limits assumed, looked up): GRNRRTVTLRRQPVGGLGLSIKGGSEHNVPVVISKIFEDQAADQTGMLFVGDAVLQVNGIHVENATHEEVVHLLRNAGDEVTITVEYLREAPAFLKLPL

T5: DLG3_3, Q92796
T5 sequence (Q92796 374-475, limits assumed, looked up): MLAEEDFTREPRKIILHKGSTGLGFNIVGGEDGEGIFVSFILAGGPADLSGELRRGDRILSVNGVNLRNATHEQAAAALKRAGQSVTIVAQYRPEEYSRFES

T6: APBA2_1, Q99767
T6 sequence (Q99767 563-664, limits assumed, looked up): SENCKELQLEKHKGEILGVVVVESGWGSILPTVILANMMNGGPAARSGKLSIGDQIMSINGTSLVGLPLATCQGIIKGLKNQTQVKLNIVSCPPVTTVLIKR

T7: TIAM2, Q8IVF5
T7 sequence (Q8IVF5 885-986, limits assumed, looked up): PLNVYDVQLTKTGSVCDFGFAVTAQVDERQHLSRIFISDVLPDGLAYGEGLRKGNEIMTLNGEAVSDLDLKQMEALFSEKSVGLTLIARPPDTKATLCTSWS

T8: APBA1_2, Q02410
T8 sequence (Q02410 742-832, limits assumed, looked up): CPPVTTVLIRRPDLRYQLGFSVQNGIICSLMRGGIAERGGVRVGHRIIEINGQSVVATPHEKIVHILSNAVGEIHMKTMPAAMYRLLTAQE

T9: PTPN13_1, Q12923
T9 sequence (Q12923 1088-1188, limits assumed, looked up): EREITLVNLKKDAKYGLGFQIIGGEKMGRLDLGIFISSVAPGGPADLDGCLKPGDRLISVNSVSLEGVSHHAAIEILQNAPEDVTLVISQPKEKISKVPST

T10: PARD3B_1, Q8TEW8
T10 sequence (Q8TEW8 196-299, limits assumed, looked up): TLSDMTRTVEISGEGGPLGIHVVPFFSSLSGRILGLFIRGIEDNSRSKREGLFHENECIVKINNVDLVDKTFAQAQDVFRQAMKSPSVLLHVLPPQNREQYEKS


The binders below were run against T1, MPDZ_10, O75970 (assay: holdup assay). Conditions: plain residues with an end cap or a label only (N-terminal biotin on a linker: ado-ado).
Set-up: key: below the threshold = too weak to quantify, mostly under pKd 3.1 to 4
For QGPVETESVV [SLC45A4, Q5BKX6], the pKd was “below the threshold”. In the case of KKAPTNEFYA [SDC4, P31431], the pKd is reported as “below the threshold”.

What follows are binders tested against GRIP2_6, Q9C0E4 (assay: holdup assay). Conditions: plain residues with an end cap or a label only (N-terminal biotin on a linker: ado-ado).
Chain of GRIP2_6, Q9C0E4 (Q9C0E4 648-740): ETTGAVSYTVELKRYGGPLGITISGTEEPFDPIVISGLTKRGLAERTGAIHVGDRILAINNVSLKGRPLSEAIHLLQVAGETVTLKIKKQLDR
Set-up: key: below the threshold = too weak to quantify, mostly under pKd 3.1 to 4
For QGPVETESVV [SLC45A4, Q5BKX6], the pKd was “below the threshold”. KKAPTNEFYA [SDC4, P31431] gave a pKd of 3.56.

What follows are binders tested against GRIP2_3, Q9C0E4 (assay: holdup assay). Conditions: plain residues with an end cap or a label only (N-terminal biotin on a linker: ado-ado).
Chain of GRIP2_3, Q9C0E4 (Q9C0E4 238-339): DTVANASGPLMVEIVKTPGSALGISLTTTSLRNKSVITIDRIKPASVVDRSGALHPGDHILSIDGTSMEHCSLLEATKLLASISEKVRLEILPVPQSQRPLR
Set-up: key: below the threshold = too weak to quantify, mostly under pKd 3.1 to 4
With QGPVETESVV [SLC45A4, Q5BKX6] the pKd was “below the threshold”. With KKAPTNEFYA [SDC4, P31431] the pKd was “below the threshold”.

Each binder was assayed against PARD3_3, Q8TEW0 (assay: holdup assay). Conditions: plain residues with an end cap or a label only (N-terminal biotin on a linker: ado-ado).
Chain of PARD3_3, Q8TEW0 (Q8TEW0 582-685): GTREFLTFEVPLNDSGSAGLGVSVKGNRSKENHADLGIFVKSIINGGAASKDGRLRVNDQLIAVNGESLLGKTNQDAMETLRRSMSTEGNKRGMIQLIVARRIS
Set-up: key: below the threshold = too weak to quantify, mostly under pKd 3.1 to 4
In the case of QGPVETESVV [SLC45A4, Q5BKX6], the pKd is reported as 3.81. With KKAPTNEFYA [SDC4, P31431] the pKd was “below the threshold”.

What follows are binders tested against LNX1_2, Q8TBB1 (assay: holdup assay). Conditions: plain residues with an end cap or a label only (N-terminal biotin on a linker: ado-ado).
Chain of LNX1_2, Q8TBB1 (Q8TBB1 371-470): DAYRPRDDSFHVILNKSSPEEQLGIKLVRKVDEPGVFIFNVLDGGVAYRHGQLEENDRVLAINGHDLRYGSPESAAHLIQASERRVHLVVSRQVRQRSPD
Set-up: key: below the threshold = too weak to quantify, mostly under pKd 3.1 to 4
For QGPVETESVV [SLC45A4, Q5BKX6], the pKd was “below the threshold”. KKAPTNEFYA [SDC4, P31431] was tested, and the pKd was “below the threshold”.

What follows are binders tested against GORASP1, Q9BQQ3 (assay: holdup assay). Conditions: plain residues with an end cap or a label only (N-terminal biotin on a linker: ado-ado).
Chain of GORASP1, Q9BQQ3 (Q9BQQ3 1-208): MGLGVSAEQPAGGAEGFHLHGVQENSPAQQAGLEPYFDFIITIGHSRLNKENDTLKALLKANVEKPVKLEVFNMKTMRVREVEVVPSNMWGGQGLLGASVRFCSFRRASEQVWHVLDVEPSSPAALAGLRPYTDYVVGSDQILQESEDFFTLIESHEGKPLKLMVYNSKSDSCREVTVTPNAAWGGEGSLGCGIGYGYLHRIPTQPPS
Set-up: key: below the threshold = too weak to quantify, mostly under pKd 3.1 to 4
With QGPVETESVV [SLC45A4, Q5BKX6] the pKd was 3.65. In the case of KKAPTNEFYA [SDC4, P31431], the pKd is reported as “below the threshold”.

These binders were tested against T2, NHERF3_1, Q5T2W1 (assay: holdup assay). Conditions: plain residues with an end cap or a label only (N-terminal biotin on a linker: ado-ado).
Set-up: key: below the threshold = too weak to quantify, mostly under pKd 3.1 to 4
QGPVETESVV [SLC45A4, Q5BKX6] showed a pKd of 4.01. Binder KKAPTNEFYA [SDC4, P31431] has a pKd of 3.79.

These binders were tested against CASK, O14936 (assay: holdup assay). Conditions: plain residues with an end cap or a label only (N-terminal biotin on a linker: ado-ado).
Chain of CASK, O14936 (O14936 487-570): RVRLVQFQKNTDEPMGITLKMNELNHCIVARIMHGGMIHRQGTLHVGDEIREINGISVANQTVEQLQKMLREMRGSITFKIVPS
Set-up: key: below the threshold = too weak to quantify, mostly under pKd 3.1 to 4
With QGPVETESVV [SLC45A4, Q5BKX6] the pKd was “below the threshold”. For KKAPTNEFYA [SDC4, P31431], the pKd was “below the threshold”.

Each binder was assayed against NHERF2_2, Q15599 (assay: holdup assay). Conditions: plain residues with an end cap or a label only (N-terminal biotin on a linker: ado-ado).
Chain of NHERF2_2, Q15599 (Q15599 142-238): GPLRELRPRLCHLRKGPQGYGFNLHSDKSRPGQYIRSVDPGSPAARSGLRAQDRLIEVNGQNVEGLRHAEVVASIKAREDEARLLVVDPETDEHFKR
Set-up: key: below the threshold = too weak to quantify, mostly under pKd 3.1 to 4
QGPVETESVV [SLC45A4, Q5BKX6] showed a pKd of 3.63. With KKAPTNEFYA [SDC4, P31431] the pKd was “below the threshold”.

Each binder was assayed against GRIP2_5, Q9C0E4 (assay: holdup assay). Conditions: plain residues with an end cap or a label only (N-terminal biotin on a linker: ado-ado).
Chain of GRIP2_5, Q9C0E4 (Q9C0E4 544-642): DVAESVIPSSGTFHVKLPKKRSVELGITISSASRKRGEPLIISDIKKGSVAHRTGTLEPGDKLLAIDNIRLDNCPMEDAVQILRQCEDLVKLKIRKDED
Set-up: key: below the threshold = too weak to quantify, mostly under pKd 3.1 to 4
For QGPVETESVV [SLC45A4, Q5BKX6], the pKd was “below the threshold”. With KKAPTNEFYA [SDC4, P31431] the pKd was “below the threshold”.

What follows are binders tested against T3, PDZRN3_1, Q9UPQ7 (assay: holdup assay). Conditions: plain residues with an end cap or a label only (N-terminal biotin on a linker: ado-ado).
Set-up: key: below the threshold = too weak to quantify, mostly under pKd 3.1 to 4
Binder QGPVETESVV [SLC45A4, Q5BKX6] has a pKd of 3.72. For KKAPTNEFYA [SDC4, P31431], the pKd was “below the threshold”.

What follows are binders tested against T4, SNTG2, Q9NY99 (assay: holdup assay). Conditions: plain residues with an end cap or a label only (N-terminal biotin on a linker: ado-ado).
Set-up: key: below the threshold = too weak to quantify, mostly under pKd 3.1 to 4
With QGPVETESVV [SLC45A4, Q5BKX6] the pKd was 4.34. KKAPTNEFYA [SDC4, P31431] was tested, and the pKd was “below the threshold”.

The binders below were run against HTRA2, O43464 (assay: holdup assay). Conditions: plain residues with an end cap or a label only (N-terminal biotin on a linker: ado-ado).
Chain of HTRA2, O43464 (O43464 355-458): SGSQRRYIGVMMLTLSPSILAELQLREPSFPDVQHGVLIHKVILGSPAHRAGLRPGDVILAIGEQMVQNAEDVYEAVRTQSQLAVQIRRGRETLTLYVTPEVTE
Set-up: key: below the threshold = too weak to quantify, mostly under pKd 3.1 to 4
QGPVETESVV [SLC45A4, Q5BKX6] was tested, and the pKd was “below the threshold”. For KKAPTNEFYA [SDC4, P31431], the pKd was “below the threshold”.

Each binder was assayed against LNX1_1, Q8TBB1 (assay: holdup assay). Conditions: plain residues with an end cap or a label only (N-terminal biotin on a linker: ado-ado).
Chain of LNX1_1, Q8TBB1 (Q8TBB1 261-371): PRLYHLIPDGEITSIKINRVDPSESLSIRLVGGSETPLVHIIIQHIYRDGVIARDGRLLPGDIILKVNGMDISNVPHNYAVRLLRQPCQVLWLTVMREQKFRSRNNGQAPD
Set-up: key: below the threshold = too weak to quantify, mostly under pKd 3.1 to 4
QGPVETESVV [SLC45A4, Q5BKX6] was tested, and the pKd was 3.95. With KKAPTNEFYA [SDC4, P31431] the pKd was “below the threshold”.

What follows are binders tested against T5, DLG3_3, Q92796 (assay: holdup assay). Conditions: plain residues with an end cap or a label only (N-terminal biotin on a linker: ado-ado).
Set-up: key: below the threshold = too weak to quantify, mostly under pKd 3.1 to 4
For QGPVETESVV [SLC45A4, Q5BKX6], the pKd was “below the threshold”. In the case of KKAPTNEFYA [SDC4, P31431], the pKd is reported as “below the threshold”.

The binders below were run against LAP2, Q96RT1 (assay: holdup assay). Conditions: plain residues with an end cap or a label only (N-terminal biotin on a linker: ado-ado).
Chain of LAP2, Q96RT1 (Q96RT1 other isoform, or with tags, fused parts or gaps): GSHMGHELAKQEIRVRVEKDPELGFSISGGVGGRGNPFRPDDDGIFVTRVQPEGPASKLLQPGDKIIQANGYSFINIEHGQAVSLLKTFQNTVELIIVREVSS
Set-up: key: below the threshold = too weak to quantify, mostly under pKd 3.1 to 4
Work on QGPVETESVV [SLC45A4, Q5BKX6] yielded a pKd of 3.66. With KKAPTNEFYA [SDC4, P31431] the pKd was “below the threshold”.

The binders below were run against T6, APBA2_1, Q99767 (assay: holdup assay). Conditions: plain residues with an end cap or a label only (N-terminal biotin on a linker: ado-ado).
Set-up: key: below the threshold = too weak to quantify, mostly under pKd 3.1 to 4
QGPVETESVV [SLC45A4, Q5BKX6] was tested, and the pKd was “below the threshold”. In the case of KKAPTNEFYA [SDC4, P31431], the pKd is reported as “below the threshold”.

These binders were tested against T7, TIAM2, Q8IVF5 (assay: holdup assay). Conditions: plain residues with an end cap or a label only (N-terminal biotin on a linker: ado-ado).
Set-up: key: below the threshold = too weak to quantify, mostly under pKd 3.1 to 4
QGPVETESVV [SLC45A4, Q5BKX6] was tested, and the pKd was “below the threshold”. With KKAPTNEFYA [SDC4, P31431] the pKd was 3.94.

Each binder was assayed against FRMPD2_2, Q68DX3 (assay: holdup assay). Conditions: plain residues with an end cap or a label only (N-terminal biotin on a linker: ado-ado).
Chain of FRMPD2_2, Q68DX3 (Q68DX3 944-1038): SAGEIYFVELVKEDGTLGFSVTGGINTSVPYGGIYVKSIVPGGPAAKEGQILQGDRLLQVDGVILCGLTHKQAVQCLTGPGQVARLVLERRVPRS
Set-up: key: below the threshold = too weak to quantify, mostly under pKd 3.1 to 4
Work on QGPVETESVV [SLC45A4, Q5BKX6] yielded a pKd of 4.19. With KKAPTNEFYA [SDC4, P31431] the pKd was “below the threshold”.

What follows are binders tested against GRIP2_4, Q9C0E4 (assay: holdup assay). Conditions: plain residues with an end cap or a label only (N-terminal biotin on a linker: ado-ado).
Chain of GRIP2_4, Q9C0E4 (Q9C0E4 446-548): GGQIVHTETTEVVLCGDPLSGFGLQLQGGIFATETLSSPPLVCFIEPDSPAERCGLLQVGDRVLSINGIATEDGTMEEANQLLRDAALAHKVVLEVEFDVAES
Set-up: key: below the threshold = too weak to quantify, mostly under pKd 3.1 to 4
With QGPVETESVV [SLC45A4, Q5BKX6] the pKd was “below the threshold”. For KKAPTNEFYA [SDC4, P31431], the pKd was “below the threshold”.

What follows are binders tested against T8, APBA1_2, Q02410 (assay: holdup assay). Conditions: plain residues with an end cap or a label only (N-terminal biotin on a linker: ado-ado).
Set-up: key: below the threshold = too weak to quantify, mostly under pKd 3.1 to 4
For QGPVETESVV [SLC45A4, Q5BKX6], the pKd was 3.79. For KKAPTNEFYA [SDC4, P31431], the pKd was “below the threshold”.

Each binder was assayed against T9, PTPN13_1, Q12923 (assay: holdup assay). Conditions: plain residues with an end cap or a label only (N-terminal biotin on a linker: ado-ado).
Set-up: key: below the threshold = too weak to quantify, mostly under pKd 3.1 to 4
For QGPVETESVV [SLC45A4, Q5BKX6], the pKd was “below the threshold”. For KKAPTNEFYA [SDC4, P31431], the pKd was “below the threshold”.

What follows are binders tested against MAGI1_1, Q96QZ7 (assay: holdup assay). Conditions: plain residues with an end cap or a label only (N-terminal biotin on a linker: ado-ado).
Chain of MAGI1_1, Q96QZ7 (Q96QZ7 1-106): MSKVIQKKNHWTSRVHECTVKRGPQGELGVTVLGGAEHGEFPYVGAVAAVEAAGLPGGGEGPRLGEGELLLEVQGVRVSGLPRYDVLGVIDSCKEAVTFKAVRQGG
Set-up: key: below the threshold = too weak to quantify, mostly under pKd 3.1 to 4
For QGPVETESVV [SLC45A4, Q5BKX6], the pKd was “below the threshold”. In the case of KKAPTNEFYA [SDC4, P31431], the pKd is reported as “below the threshold”.

The binders below were run against FRMPD2_3, Q68DX3 (assay: holdup assay). Conditions: plain residues with an end cap or a label only (N-terminal biotin on a linker: ado-ado).
Chain of FRMPD2_3, Q68DX3 (Q68DX3 1073-1166): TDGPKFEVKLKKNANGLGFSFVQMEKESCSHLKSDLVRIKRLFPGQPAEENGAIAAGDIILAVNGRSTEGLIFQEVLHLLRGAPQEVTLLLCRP
Set-up: key: below the threshold = too weak to quantify, mostly under pKd 3.1 to 4
Binder QGPVETESVV [SLC45A4, Q5BKX6] has a pKd of 3.54. KKAPTNEFYA [SDC4, P31431] was tested, and the pKd was “below the threshold”.

These binders were tested against TJP1_3, Q07157 (assay: holdup assay). Conditions: plain residues with an end cap or a label only (N-terminal biotin on a linker: ado-ado).
Chain of TJP1_3, Q07157 (Q07157 416-512): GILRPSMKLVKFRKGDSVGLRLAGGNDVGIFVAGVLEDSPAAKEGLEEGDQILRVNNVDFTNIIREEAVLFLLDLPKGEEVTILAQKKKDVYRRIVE
Set-up: key: below the threshold = too weak to quantify, mostly under pKd 3.1 to 4
In the case of QGPVETESVV [SLC45A4, Q5BKX6], the pKd is reported as “below the threshold”. For KKAPTNEFYA [SDC4, P31431], the pKd was “below the threshold”.

These binders were tested against Inadl_2, Q8NI35 (assay: holdup assay). Conditions: plain residues with an end cap or a label only (N-terminal biotin on a linker: ado-ado).
Chain of Inadl_2, Q8NI35 (Q8NI35 238-335): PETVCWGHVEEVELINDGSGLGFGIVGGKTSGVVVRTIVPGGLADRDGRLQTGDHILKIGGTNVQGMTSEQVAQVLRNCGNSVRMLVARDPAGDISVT
Set-up: key: below the threshold = too weak to quantify, mostly under pKd 3.1 to 4
With QGPVETESVV [SLC45A4, Q5BKX6] the pKd was “below the threshold”. With KKAPTNEFYA [SDC4, P31431] the pKd was “below the threshold”.

The binders below were run against T10, PARD3B_1, Q8TEW8 (assay: holdup assay). Conditions: plain residues with an end cap or a label only (N-terminal biotin on a linker: ado-ado).
Set-up: key: below the threshold = too weak to quantify, mostly under pKd 3.1 to 4
For QGPVETESVV [SLC45A4, Q5BKX6], the pKd was “below the threshold”. Work on KKAPTNEFYA [SDC4, P31431] yielded a pKd of 4.52.
